Source: the supplement of paper PMC10724198
± gives the standard deviation of the averaged measurements.

Assays:
Assay in all cases: protein stability index of tFT-peptide fusion (C-terminal peptide) (PSI (0-1 scale)); higher = more stable (slower turnover)
Saccharomyces cerevisiae [1] = details: temperature: 30 C
Method: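 MPS profiling in S. cerevisiae of the yeast C-terminome library: the last 12 aa of each annotated ORF are fused to the C-terminus of a sfGFP-mCherry timer, after a GGGS linker. Cells are FACS-sorted into 8 mCherry/sfGFP bins and deep-sequenced. PSI runs from 0 (unstable) to 1 (stable); wild type and das1Δ backgrounds, two technical replicates each.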

Saccharomyces cerevisiae [2] = system: Saccharomyces cerevisiae
Method: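 MPS profiling in S. cerevisiae of the tFT-X12 degron library: putative degron peptides plus stable controls, 12 aa, fused to the C-terminus of a sfGFP-mCherry timer. Cells are FACS-sorted into 8 mCherry/sfGFP bins and deep-sequenced. PSI runs from 0 (unstable) to 1 (stable). Backgrounds are wild type, das1Δ and doa10Δ at 30 °C, and wild type, das1Δ, cdc34-1 and cdc53-1 at 37 °C; 2-3 technical replicates each.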

Saccharomyces cerevisiae [3] = details: genetic background: wild type; temperature: 30 C
[4] = genetic background: das1 deletion
[5] = genetic background: cdc34-1, temperature: 37 C
[6] = genetic background: cdc53-1, temperature: 37 C
[7] = genetic background: das1 deletion, temperature: 30 C
[8] = genetic background: das1 deletion, temperature: 37 C
[9] = genetic background: doa10 deletion, temperature: 30 C
[10] = genetic background: wild type, temperature: 30 C
[11] = genetic background: wild type, temperature: 37 C

Sequence | protein stability index (Saccharomyces cerevisiae [1]; [4]) | protein stability index (Saccharomyces cerevisiae [1]; genetic background: wild type) | protein stability index (Saccharomyces cerevisiae [2]; [5]) | protein stability index (Saccharomyces cerevisiae [2]; [6]) | protein stability index (Saccharomyces cerevisiae [2]; [7]) | protein stability index (Saccharomyces cerevisiae [2]; [8]) | protein stability index (Saccharomyces cerevisiae [2]; [9]) | protein stability index (Saccharomyces cerevisiae [2]; [10]) | protein stability index (Saccharomyces cerevisiae [2]; [11]) | protein stability index (Saccharomyces cerevisiae [3])
HKNHSVPRLIQV [YCL068C C-terminal 12 aa] | 0.6194 ± 0.0049 | 0.654 ± 0.048 |  |  |  |  |  |  |  | 
SISVLFDSLAAL [PRS1 C-terminal 12 aa] | 0.714 ± 0.0093 | 0.736 ± 0.022 |  |  |  |  |  |  |  | 
IDLLAENTKTPI [COA1 C-terminal 12 aa] | 0.6964 ± 0.0031 | 0.697 ± 0.018 |  |  |  |  |  |  |  | 
PLKFPLPLKPPL [YHL034W-A C-terminal 12 aa] | 0.715 ± 0.018 | 0.699 ± 0.022 |  |  |  |  |  |  |  | 
PCRYLELRKFGR [TPN1 C-terminal 12 aa] | 0.7005 ± 0.0046 | 0.74 ± 0.045 |  |  |  |  |  |  |  | 
ELDEIAASLENL [TPM1 C-terminal 12 aa] | 0.7088 ± 0.0027 | 0.69 ± 0.01 |  |  |  |  |  |  |  | 
KWGLSKKDGRQA [SLY41 C-terminal 12 aa] | 0.699 ± 0.034 | 0.7036 ± 0.0043 |  |  |  |  |  |  |  | 
HNLHSYEKRLHN [IMD2 C-terminal 12 aa] | 0.7234 ± 0.0046 | 0.742 ± 0.066 |  |  |  |  |  |  |  | 
IFLMKKAYDLQI [EFM1 C-terminal 12 aa] | 0.675 ± 0.011 | 0.657 ± 0.02 |  |  |  |  |  |  |  | 
LNDLSNVRHSKT [HER1 C-terminal 12 aa] | 0.6893 ± 0.0035 | 0.675 ± 0.022 |  |  |  |  |  |  |  | 
EKTRKNISKFFS [CPR7 C-terminal 12 aa] | 0.713 ± 0.022 | 0.707 ± 0.013 |  |  |  |  |  |  |  | 
YEKVVELWNKVV [MNT4 C-terminal 12 aa] | 0.701 ± 0.018 | 0.199 ± 0.0098 |  |  |  |  |  |  |  | 
KPGGSKKRKTKA [RFC1 C-terminal 12 aa] | 0.729 ± 0.011 | 0.747 ± 0.15 |  |  |  |  |  |  |  | 
GASAEDNTHPDE [NAB6 C-terminal 12 aa] | 0.694 ± 0.011 | 0.681 ± 0.046 |  |  |  |  |  |  |  | 
YSKHLKRLLPYH [MRP35 C-terminal 12 aa] | 0.6788 ± 0.0019 | 0.712 ± 0.071 |  |  |  |  |  |  |  | 
QKLHAIDGEDEL [GPI17 C-terminal 12 aa] | 0.688 ± 0.017 | 0.649 ± 0.028 |  |  |  |  |  |  |  | 
VNNFKMFSNSSV [YIL115W-A C-terminal 12 aa] | 0.704 ± 0.027 | 0.765 ± 0.045 |  |  |  |  |  |  |  | 
EETEAQAEPVEA [RPS3 C-terminal 12 aa] | 0.687 ± 0.013 | 0.663 ± 0.021 |  |  |  |  |  |  |  | 
VLMLETIAYLFS [NFG1 C-terminal 12 aa] | 0.487 ± 0.022 | 0.5059 ± 0.0015 |  |  |  |  |  |  |  | 
TYSYTIDHPVLT [NUP100 C-terminal 12 aa] | 0.659 ± 0.021 | 0.659 ± 0.034 |  |  |  |  |  |  |  | 
DILGSLLAKKRK [MRE11 C-terminal 12 aa] | 0.681 ± 0.023 | 0.672 ± 0.022 |  |  |  |  |  |  |  | 
AYCGGRNKCTTE |  |  | 0.689 ± 0.015 | 0.711 ± 0.021 | 0.644 ± 0.034 | 0.744 ± 0.013 | 0.659 ± 0.014 | 0.643 ± 0.011 | 0.712 ± 0.0078 | 0.701 ± 0.0081
FERVEYEVLGIG |  |  | 0.35 ± 0.0065 | 0.441 ± 0.037 | 0.394 ± 0.0079 | 0.449 ± 0.017 | 0.395 ± 0.012 | 0.38 ± 0.017 | 0.44 ± 0.021 | 0.415 ± 0.014
FCIYLCLSTSIT |  |  | 0.0795 ± 0.0063 | 0.221 ± 0.0083 | 0.14 ± 0.036 | 0.306 ± 0.025 | 0.119 ± 0.0062 | 0.129 ± 0.027 | 0.247 ± 0.0029 | 0.374 ± 0.084
CEERVKSRLKQN |  |  | 0.619 ± 0.011 | 0.68 ± 0.013 | 0.653 ± 0.043 | 0.728 ± 0.014 | 0.174 ± 0.012 | 0.18 ± 0.031 | 0.307 ± 0.022 | 0.226 ± 0.082
GFGDKVPWRWVI |  |  | 0.606 ± 0.037 | 0.759 ± 0.022 | 0.657 ± 0.026 | 0.7816 ± 0.0045 | 0.124 ± 0.01 | 0.135 ± 0.0096 | 0.244 ± 0.0061 | 0.227 ± 0.045
RCTLFVNPVCVH |  |  | 0.251 ± 0.018 | 0.304 ± 0.008 | 0.242 ± 0.034 | 0.402 ± 0.025 | 0.197 ± 0.011 | 0.241 ± 0.015 | 0.345 ± 0.017 | 0.349 ± 0.014
VVFVFIDLGLCV |  |  | 0.187 ± 0.0053 | 0.326 ± 0.035 | 0.243 ± 0.028 | 0.423 ± 0.0072 | 0.188 ± 0.019 | 0.223 ± 0.018 | 0.4359 ± 0.0027 | 0.266 ± 0.007
LSLWLFRILSVR |  |  | 0.4052 ± 0.0027 | 0.451 ± 0.017 | 0.335 ± 0.023 | 0.4987 ± 0.0027 | 0.342 ± 0.0045 | 0.341 ± 0.012 | 0.4906 ± 0.0043 | 0.4439 ± 0.0026
FLLVGLLIVGCG |  |  | 0.175 ± 0.0045 | 0.272 ± 0.0014 | 0.206 ± 0.027 | 0.349 ± 0.018 | 0.166 ± 0.025 | 0.206 ± 0.026 | 0.334 ± 0.0082 | 0.225 ± 0.12
